Data from the NTF2 design screens of Basanta et al. (2020).

test: protease stability score; higher = more stable; yeast display proteolysis, trypsin and chymotrypsin;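 note: relative to predicted unfolded state with 0 unfolded-like and 1 meaning tenfold more protease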

Sequence	protease stability score
SEDERDAHRAWEIWLKTLETGNEEDMLKLMDPNVRIIIGDKHHHGREELEKILRRYDHIDMEHVHLRHLEVQGEKVIYIGEIHMVFHFNGVTRRLHTEAILILTKVNGRWSQKSLEIK	1.32
DEEQTQMEETVNVVLSAMRTGDEETSKKLADPNVKIRINGREFHGRDFYAHVILMFGIDHIEMRIERYEFQGEKLILRGRLRLEFNGKEETSDVIEIWWKVDGRWHLDNYYEN	1.37
SEEEEFVELAVRLFLETMRTGDEKDINRLADPHTRNIVNGRDIIGREELTRQLHEILHFFKNVQVHIEEVRWQGNYIVLKILWNFDGQTMEVHVYARKIDGRWVETEFEFR	2.08
DEEEEEVRKLAHIHLHWLKTGDEEFEKKYADPHTKFRFNGRSSHGMEDFAEWVREIRIHDVIIRRVRVVNGVNEIDMEVDFEFDGKRIRSQTQILLFIYDGRIKSTEFTIR	0.805
DEEERQLEEFLELLVEALRTGDWHTLMRMLDPNVKVHIDGKDIHGREEHIRLHIEQWERLGYERIEFRVRIDEVHFINGVVEVDYTQIDQFDGQRLQLRVRIFLLKFDGRWSIDKVVFR	2.46
TEDHEDLRRFWEYFEEAFRTGDWKALSDLADPNVKIRIGDKLHVGRDDYYEFLRELIERVDHMELRLKRVHLVGDKLHVDSTLDLHVNGKRIHSRSRFTFTKVDGKWKVESVHYE	1.61
DEDDELYKRVFELIEHDNHTGNEKSHLELADPHARLLYDGKLVIGRELLLEWMRRLGIDVIRHMDFKRFRIQGDKIEMDVRVHGEVNGRHIDTDTHLIARKVNGRWLLEEIRIK	0.937
TEHEHEAEDALEKSIRHFHTGDEDTLKHLMDPNVRNDIDGKHIHGREDVLDIMIRIPNVRSEIDDVRVRHVNGRIEVIVDGILYFNGRTVEVRVILIMQKINGKWYITSLEIRRR	0.628
TERHEHVLHLLNLFLEEWLTGDWDKFFRLADPNVKYFINGQDIHGRETIRENHEQKWRELRIREIRVHSVDVVGDKAHADITENLEVNGREIRTRSHLDIVVVNGRVHHVRMHVD	0.544
TEEEEELHKILERMIKHLVTGDEEAILKLADPDVRVHRIIDGRELDIVGRENLRHWLHELLRQLGVDHIDVKSVTLQGDKIHMTGTMKWNGKTEETRIIFEVVNGRLKRMEFHEI	0.982
SEIEEELSSDRRDFIRAVLTGDFERHIEQMDPNVKLIFNGKEFHGREEVHRSWEELIDRWGVDKFEYRIEDMEHFPGHLMIHGTLNYNGKRERVIIYAVKFNGRWRVERVEIK	1.55
SEDERVAFELVVIWSEALITGDEHTSIELLDPNTRIIFNGRDRHGRTFLQEWMKQLRVERIRIHIHHINLQGDKLKVFSELRFVGNVDGVRDEIKTEVVVFLDKIDGRWIVSHIDVH	2.22
SNEQKEFELLLRLMKEIIETGDEENFHRMVDPHARLQVGDKHHHGREEMSRWFEEFTKRFKNAKVHIDHVDSVDGQLHIDTTLIFDGVERRVEIIVRKVDGKWILEEVRII	1.08
REEEEEIEEALRQWLTLHETGDFKYLEKLFDPNVKQDVGDKELHGRELFSKFEHELAERIKGVRFRYHYEEIHIFDGRVVLRLDGIWEIGDKSMRVTLIVIMNKFDGRWKLESLHIEYR	1.24
DEDDKLLEKWVKDLREALRTGDEQTLLKLIDPNTRLEIGDKDFHGREVIVKLWKDLGMEIRDVKVHDIKRQGDFLELDIRIDVIINGVRENREHKIYALKVNGKWFVKTQIDE	2.13
DEDRFETELAVDLWLRTLETGDEHFLHRLADPRVQLEYGNFHYHGRHEFLHWFHDLKRKYKNLRVDIRDVRDIDGRIILHTELKQGDKHIESKVYMEKYDGRWLIKSYEIR	0.971
SEHDDLIRHYAERIRKSLLTGDEHDLTELLDPNTYFEVRIGDFTLKAHGWERVHEVLDMINENLGIKHDDIQHIEWYGDKIHIDTRVRIGDKEIHTEVIIVVINGKVSKIEHRVI	0.45
DEMEDSSRWALEVEMKSFKTGDERSLYEMVDPHAKFEFENHHDHGRSAVELWREQADHMHIDFRLKDMRLVGDFIIIHGVELVHNHVNGRDIDLNLDVRIISRKINGRWILHHVLFR	1.38

Sequence	protease stability score
DDEREEAKRAIEDLVRDLETGNWKHLHEFLDPNVRIRVGDKDIHGREEATHHLRRLHEKFKNLKVIIEHVDIVGNKIIEHGHIEIGDKSMEVEIIIIKINGRWYIKEIHIK	1.6
SEEEENILIAYRLIMHSVNTGDESSLLELIDPDYRLDVNGVDIHGREEWYRDQKERFRDAGFKHTEFRFRDLRVQGDKVFLDVEITWHVDGKTIRHRVTMIVLKVNGRWLVESFKVK	1.48
SHEDELIERFYKWLIHILETGDEERWMEYADPDARLLYNGKDLIGRDEARRQMHEMRFHHMEVKSIRVVDGKVNVTGRIDGEINGRHHEHEVLLVIIKFNGKWLIKTVQFH	1.22
EEEEKHAKHVAKEFLRLLFTGNEHRLKEYLDPNVRLDVNGQEFHGWEEIVKWLREIRFEDSRLHRIRVVGDKIDIDGELDGVINGRRVDRRSIIILFVVDGRYTEVTYRNI	1.26
SEDDERSEKAAEKWLHNFVTGDFKEMSDNLDPNTRLHVDGKDFVGMELVLKIFEDLWDHLGVDHVLINDSHVHVIDGKLHSHLDVTEEVNGRRRRVEIIIIAVKVNGRWRQKEVHIMFR	0.794
SEEHKMVRDVTEDWLRLLLTGDEERLAELLDPNTRFLINGKEHHGREEAIEEWRHLRVDDFRIKSIDIQYQGEKAYVDIDGRQRGKVNGKKQDRDIKIHFHILKINGRWTIHEVRVEIE	1.56
SDLERDAREAFEHYVNLMRTGNEHIVEHLIDPDVKIEIGDKQVVGREEVLKLFHHLVKHLRWHDTKLHHVHYQGDKMLLDMRLDGTIDGRRLDTRVIWFILKIDGVWFIKYQHYH	1.81
SEEQHHLYSVFVRLIRNHWTGNERELHELADPNTRHTVGDKTYHGMEHVAWLLTEWVKEARLEIILRDVHVFDGRVESRIEFRLRYGDFKTTHEVRVEVNVVDGRLKEMEIDIN	1.43
SEDHREARHAVHVFLHLLETGDEDHLVKLLDPNVRYVIGDKTHHGWEELERIRNKFKNIRITLRDRDFHIFDGRLLVLIRGELEFDGRRVDFEVITYIEKINGRWIVSEFRIHLN	1.5
DEDTELSKHFDDVFAEYVETGDEHSLRHLMDPNTRILVNGVDLVGWELVLDHLDRHLKEMRIKRVTTHEMRIYGDKVTIHSKLKMHIDGRDVDTDTEIIVKKVDGKWIMHFVNLH	2.25
DEKEEHLDELARLFWEVHHTGNEEVFEELFDPRMRLIFNGQQYIGMEKAVKIESRVKNITVRLETYRVINGRIEIHENWRQGEKEIKFEIRIVVIDGVAKEMERIFREK	1.09
HEDEEMSQRMLDELMRFSRTGDWQRSAELADPHVRIIIGDKHLHGMEHWSELLKRIDHSHFHLRHVDIFENHIRLQGELRLHINGVEHRHEVIIKAHKVDGQWILESVEIR	0.768
DEETKLNHLAIRLWLQSVMTGNEELQTKLIDPHVRNHIDGREYHGREVFRENLRDLWEKYGVKHVELTHEHSQGEKVHLRFKVDVNGRELDHKIIAHKIDGRWLDHSIHFH	0.611
DEKTEIVSRIMIVFFHALLTGDWETLKKNADPHVKLEAEGRKSHGMEELVRWIHEEIKRIPGIRFELKRYDVQGDKVEIEGRVRINGVEFELIIESVIVDGKLKSIREEWR	1.41
DETEKHVKHLTELWMHAWLTGDEDLLEHLLDPHTRVIIFYGDKNYHFHGRESIHIRFYELGAKHVRDFRIRDSKIQGNKLLLNGEENGLVNGRQTETEVRIELVWIDGRVHSIVVRIH	1.3
DEQETHNNNILERLIRILHTGDEHIYEHLFDPHARLHIGDKRFHGREELSRWLRRLGVRWEHFIERDVEVQGEKLRIEGERTVHIDGVRHHHRTEIIIIVIDGKIKSYEERHV	0.572
DHEHRFMEETLERLLHVWRTGDESLIHELADPEARSDVNGREHHGRERFVDTVRHLGVKHVELKDWTIQGEKVHLSTEVDVGDKTFDFEIIIYKINGKWLIHEMRVK	0.945
DDLEKVSHWFNRMWTEILKTGDEKLLKDLLDPHTKLIFENRHEHGREHMISFFKKLLDEMRVHDVKIRDIEVQGDKVISDTSLDLEINGRSFEVETRLLAVKVNGRWYVHEIELR	2.36
